Assay results reported in the supplement of paper PMC9732359.
± gives the uncertainty stated by the source.

Assay: protein stability index of a GFP-peptide fusion (yeast GPS) (PSI 1-4); higher = more stable; sorted into four equal gates, so the index is relative within each strain
Outline: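 Mid-log yeast cultures in leucine-free medium, carrying a pooled plasmid library, were sorted into four equal gates by their GFP/Cherry fluorescence ratio. Each plasmid expressed Cherry along with GFP fused upstream of a tiled 17-residue yeast protein peptide. Plasmids recovered from each gate were PCR-amplified and Illumina-sequenced, with reads assigned to strains by barcodes. The protein stability index was obtained by summing each gate's read frequency weighted by its gate number.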

| Sequence | protein stability index (doa10∆) | protein stability index (pdr5∆) | protein stability index (san1∆) | protein stability index (ubr1∆) |
| --- | --- | --- | --- | --- |
| SDDAAQFMKRFPMPYEN [ECM29] | 2.96 ± 0.068 | 3 ± 0.14 | 2.9 ± 0.082 | – |
| QRKKQIAFPQRKYAIKA [RPL35A] | 1.25 ± 0.059 | 1.51 ± 0.078 | 1.1 ± 0.17 | 1.23 ± 0.062 |
| LEIVYGYALRDVQARRQ [RPP1] | 2.43 ± 0.15 | 1.92 ± 0.11 | 2.36 ± 0.13 | 2.3 ± 0.26 |
| HQSLGPDGLGEVGMKVQ [RET1] | 2.7 ± 0.16 | – | – | – |
| TNSHYNNTNTDNVSGLT [SNF2] | 3.19 ± 0.062 | 3.31 ± 0.046 | 3.37 ± 0.044 | 3.25 ± 0.034 |
| ALVKPETQFKLSRPYKA [CDC53] | 2.41 ± 0.068 | 2.64 ± 0.059 | 2.59 ± 0.059 | 2.34 ± 0.063 |
| SLAPEADLDSLIIRNDS [RPT3] | 2.92 ± 0.11 | 3.01 ± 0.08 | 2.77 ± 0.055 | 2.82 ± 0.071 |
| AESFTDEADSSMTEASV [SNF2] | 3.36 ± 0.094 | 3.19 ± 0.092 | 3.39 ± 0.05 | 3.09 ± 0.089 |
| GGQRSLIALSLIMALLQ [SMC2] | 1.33 ± 0.056 | 1.52 ± 0.063 | 1.73 ± 0.099 | 2.24 ± 0.036 |
| ASFQIVEEDHTLGNALR [RPC19] | 2.74 ± 0.21 | 2.22 ± 0.23 | – | 3.35 ± 0.26 |
| MKTNVHTQANEPNSAKK [RGR1] | 3.02 ± 0.11 | 3.14 ± 0.089 | 3.06 ± 0.086 | 3.24 ± 0.11 |
| QGIVPDIIMNPHGFPSR [RET1] | 2.64 ± 0.05 | 2.76 ± 0.057 | 2.74 ± 0.042 | 2.56 ± 0.037 |
| DAKKCIAACTGVPDDKW [FAS1] | 2.63 ± 0.092 | 2.35 ± 0.058 | 2.16 ± 0.11 | 2.78 ± 0.071 |
| SSRPNVNTTRRFQYSDD [YMR129W/POM152] | 2.93 ± 0.14 | 3.16 ± 0.11 | 2.4 ± 0.16 | 2.69 ± 0.088 |
| SFFSGLSPPEFLFHAIS [RPO31] | 2.07 ± 0.044 | 1.9 ± 0.05 | 1.93 ± 0.11 | 1.91 ± 0.041 |
| IIPIVDYAQLDHLVSSI [ARP9] | 2.13 ± 0.05 | 2.48 ± 0.051 | 2.34 ± 0.053 | 2.38 ± 0.039 |
| LTMANLPSWSLGKWYSK [ARP7] | 3.17 ± 0.15 | 3.28 ± 0.11 | 2.88 ± 0.17 | 2.85 ± 0.19 |
| FNEDQLFSLLELGEQKC [RRP46] | 2.37 ± 0.071 | 2.6 ± 0.089 | 2.61 ± 0.071 | 2.36 ± 0.062 |
| KLKFFPSGEALISSSQD [RPN14] | 2.92 ± 0.23 | – | – | – |
| AHEISQGVYGAVYETLI [BRR2] | 3.33 ± 0.082 | 3.11 ± 0.07 | 3.16 ± 0.061 | 3.37 ± 0.082 |
| LSALDHYERTQTKENKR [RPN8] | 2.91 ± 0.077 | 2.82 ± 0.087 | 2.71 ± 0.073 | 2.68 ± 0.057 |
| KTANSSSDAFEKLKVNM [YIL149C/MLP2] | 2.46 ± 0.053 | 2.54 ± 0.065 | 2.95 ± 0.065 | 3.02 ± 0.051 |
| LLQLKYFSNKTSTGIIR [POP5] | 2.46 ± 0.19 | 1.84 ± 0.13 | 1.35 ± 0.29 | 1.98 ± 0.062 |
| DGIGGLTEQIRELREVI [RPT4] | – | 3.65 ± 0.28 | – | – |
| PNGHISTKKIQVATKYA [YMR129W/POM152] | 1.86 ± 0.082 | 2.24 ± 0.05 | 1.75 ± 0.067 | 2 ± 0.043 |
| LQMDYKDDMKVDDAIEL [PRE9] | 3.21 ± 0.14 | 3.42 ± 0.081 | 3.21 ± 0.067 | 3.51 ± 0.071 |
| IIRLLPINLENNDGSYG [SRB8] | 1.7 ± 0.064 | 1.24 ± 0.048 | 1.21 ± 0.077 | 1.39 ± 0.048 |
| VNLSQEALQYDPQPFLK [SNU114] | 2.99 ± 0.056 | 2.84 ± 0.061 | 2.97 ± 0.044 | 3 ± 0.046 |

| Sequence | protein stability index (doa10∆) | protein stability index (pdr5∆) | protein stability index (san1∆) | protein stability index (ubr1∆) |
| --- | --- | --- | --- | --- |
| NNLSSMNLDFDIEEGPI [MCD1] | 2.91 ± 0.046 | 3.15 ± 0.042 | 3.21 ± 0.037 | 3.19 ± 0.032 |
| VEKVATAVLSTTARAKA [RPN2] | 3 ± 0.12 | 3.32 ± 0.086 | 2.93 ± 0.13 | 3.1 ± 0.081 |
| WLIEGKLYVDAVHSIIA [YDL116W/NUP84] | 1.2 ± 0.18 | 1.32 ± 0.15 | 1.07 ± 0.28 | 1.1 ± 0.095 |
| CKQVHDKLTSIQDTLRT [MED7] | 2.68 ± 0.074 | 2.85 ± 0.048 | 2.67 ± 0.044 | 2.81 ± 0.053 |
| KRLADGLSVTQKVFVRS [DIS3] | 1.85 ± 0.077 | 2.38 ± 0.076 | 1.93 ± 0.12 | 1.93 ± 0.06 |
| STFQTRRRRLKKVEEEE [RPB4] | 3.33 ± 0.15 | 3.52 ± 0.12 | – | 3.36 ± 0.14 |
| NGFSFTKFNHNKEKSNS [YOR098C/NUP1] | 2.69 ± 0.082 | 2.98 ± 0.075 | 2.77 ± 0.039 | 2.57 ± 0.052 |
| QDPIFGSVLLTLLNFVS [ECM29] | 1.63 ± 0.049 | 1.42 ± 0.052 | 1.5 ± 0.098 | 1.41 ± 0.063 |
| RQELQMQRQQQGISGSQ [SNF2] | 2.65 ± 0.049 | 2.95 ± 0.046 | 2.94 ± 0.042 | 2.9 ± 0.041 |
| PCNNRGKHSIGLIWYLL [RPS0A] | 2.56 ± 0.058 | 2.37 ± 0.054 | 2.49 ± 0.058 | 2.37 ± 0.044 |
| SILKRHSFAVLLHERKL [NUT1] | 2.19 ± 0.12 | 2.13 ± 0.078 | 2.26 ± 0.18 | 2.45 ± 0.1 |
| GVRPFGVSLLIAGHDEF [PRE8] | 2.46 ± 0.1 | 1.95 ± 0.096 | 1.94 ± 0.2 | 1.93 ± 0.075 |
| MEGQKLDDPVLNAIVSK [YJR042W/NUP85] | 3.27 ± 0.19 | 3.2 ± 0.2 | – | 3.21 ± 0.17 |
| DAIYRELTKNPNSNVEL [SMC1] | 3.31 ± 0.3 | 2.91 ± 0.15 | 3.33 ± 0.088 | 3.38 ± 0.13 |
| AVNLLNCPHSDSTQLLE [SSN2] | 2.67 ± 0.15 | 3.3 ± 0.092 | 3.51 ± 0.15 | 2.9 ± 0.072 |
| IILHFANFGEILEDFRV [YMR153W/NUP53] | 2.7 ± 0.1 | 2.65 ± 0.084 | 2.85 ± 0.062 | 2.85 ± 0.16 |
| LQNKPDAKKARFWSFMK [SIR4] | 2.55 ± 0.098 | 2.68 ± 0.13 | 2.61 ± 0.093 | 2.17 ± 0.19 |
| MSGGGNHVAKGLMKLGT [SMC4] | – | 3.56 ± 0.3 | – | – |
| EDIMVHYDNTTRNSLGN [RPO21] | 3.1 ± 0.09 | 3.1 ± 0.095 | 3.35 ± 0.041 | 3.06 ± 0.075 |
| RMRLRALETENMEIRNL [GRR1] | 3.09 ± 0.069 | 3.02 ± 0.051 | 2.78 ± 0.055 | 3.04 ± 0.041 |
| NHKSKDNNNGDDDDEDD [SKP1] | 3.13 ± 0.075 | 3.14 ± 0.069 | 3.16 ± 0.05 | 3.14 ± 0.049 |
| WAVISAFFREKGLVSQQ [RPB2] | 3.38 ± 0.14 | 3.46 ± 0.1 | 3.29 ± 0.078 | 3.14 ± 0.078 |
| LKQPPFQITLSSDDLQN [SSN8] | 2.23 ± 0.059 | 2.31 ± 0.077 | 2.34 ± 0.064 | 2.35 ± 0.085 |
| REHERVILKQILQILDQ [SWP82] | 2.83 ± 0.077 | 2.86 ± 0.066 | 2.84 ± 0.063 | 2.8 ± 0.046 |
| TRGRSATIRETYEIICD [RRP43] | 2.59 ± 0.049 | 2.68 ± 0.05 | 2.57 ± 0.058 | 2.62 ± 0.035 |
| SFEKLYEGMKLGNHAIT [YMR129W/POM152] | 2.85 ± 0.17 | 1.47 ± 0.27 | 1.85 ± 0.24 | 2 ± 0.15 |
| KDIVNISIPKTCDEIQN [REC8] | 2.81 ± 0.067 | 2.74 ± 0.056 | 2.54 ± 0.05 | 2.84 ± 0.042 |
